In patent US20190083585:

Key:
[1] = system: fluorescently quenched α-gliadin hexapeptide analogue QXL520-PQPQLP-K(5-FAM)-NH2
[2] = system: T1, immunodominant α9-gliadin peptide QLQPFPQPQLPY
T1 sequence: QLQPFPQPQLPY

glutamine-specific endoprotease EP-B2 (native), sequence (chain, as listed by the source): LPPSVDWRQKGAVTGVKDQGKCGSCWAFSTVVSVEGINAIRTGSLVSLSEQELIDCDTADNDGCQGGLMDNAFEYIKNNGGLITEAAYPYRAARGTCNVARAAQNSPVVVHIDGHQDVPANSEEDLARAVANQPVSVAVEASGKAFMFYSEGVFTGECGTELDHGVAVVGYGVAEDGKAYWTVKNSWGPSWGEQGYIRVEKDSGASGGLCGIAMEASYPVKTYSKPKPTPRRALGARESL

Substance	activity (Suc-APQ-pNA)	activity (Suc-AQP-pNA)	activity (Suc-APE-pNA)	activity (Suc-APR-pNA)	activity at pH 4 [1]	catalytic activity at pH 4 (Suc-APQ-pNA)	catalytic activity at pH 4 (Suc-AQP-pNA)	catalytic efficiency at pH 7 (Suc-AQP-pNA)	degradation of the peptide after 50 minutes (LC-MS, pH 4, 37° C.) [2]	catalytic activity at pH 4 (Suc-APE-pNA)	catalytic activity at pH 4 (Suc-APR-pNA)	catalytic efficiency at pH 4 [1]	fold lower level of activity than KumaMax [1]
glutamine-specific endoprotease EP-B2 (native)	no activity	no activity	no activity	no activity	only very low levels of activity were detected								
prolyl endopeptidase SC PEP (native)						did not exhibit any significant activity	did not exhibit any significant activity	2390 M^-1s^-1	no significant degradation of the peptide was observed	did not exhibit any significant activity	did not exhibit any significant activity	1.6 M^-1s^-1	roughly 350-fold lower level of activity on this substrate than KumaMax
